Data as given in patent US12565517B2, “Cyclic peptide having CTLA-4 inhibitory activity and use thereof” (GeneFrontier Corporation, priority 2019, dated 2026).

These substances were tested against T1, CTLA-4 (Homo sapiens, UniProt P16410) (assay: ELISA binding of clones after Affinity Maturation with random library (Tables 10, 11)). Conditions: CTLA-4 binding ELISA of clones after Affinity Maturation from random (NNS) library; signal/noise ratio; clones of 4th or 5th round.
T1 sequence (P16410 36-223): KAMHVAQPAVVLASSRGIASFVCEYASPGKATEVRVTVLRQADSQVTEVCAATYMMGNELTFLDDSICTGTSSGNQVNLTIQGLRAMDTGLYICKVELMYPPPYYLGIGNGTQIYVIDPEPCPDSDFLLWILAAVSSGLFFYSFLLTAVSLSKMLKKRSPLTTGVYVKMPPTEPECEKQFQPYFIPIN
Method: After each round of Affinity Maturation, the cyclic peptide genes were recovered and subcloned into pET-Mal vector (FIG. 2) in the same manner as described above to perform base sequence analysis. For the 94 single colonies analyzed for sequence, E. coli transformants were inoculated into 100 μL of 2×YT medium containing ampicillin (final concentration 50 μg/mL), incubated at 37° C. for 3-5 hours (OD600=0.5-0.8), then added with IPTG (final concentration 0.5 mM) and incubated at 25° C. overnight. 10 μL of E. coli cultured medium was added with 90 μL of PBS and 40 μL of lysis reagent (20 μL BugBuster Protein Extraction Reagent (Novagen), 20 μL Lysozyme solution 2.5 mg/mL) to lyse E. coli cells for 1 hour at room temperature. The cell lysate was added with 40 μL of 12.5% skim milk solution (TBST) and blocked for 1 hour at room temperature. In parallel, antigen protein was immobilized overnight at 4° C. in 384-well plates at 100 ng/20 μL per well, and each well was washed twice with 100 μL/well of TBST, added with 100 μL/well of 5% skim milk solution (TBST) for blocking for 1 hour at room temperature, and washed twice with 100 μL/well of TBST to obtain antigen-immobilized plates. 20 μL/well of blocking-treated E. coli extract was added to the antigen-immobilized plates and gently stirred at room temperature using a plate mixer. After 1 hour, the plates were washed 5 times with 100 μL/well of TBST, 20 μL/well of anti-FLAG M2-HRP conjugate (1:2000 dilution, Sigma) was added and gently stirred on a plate mixer for 1 hour at room temperature. The plates were washed 5 times with 100 μL/well of TBST, and binding of cyclic peptides to the antigen was detected by 20 μL/well of chromogenic substrate (0.4 mg/mL 3,3′,5,5′-Tetramethyl-benzidine, 0.01% hydrogen peroxide). After 15 minutes of reaction at room temperature, the reaction was stopped with 20 μL/well of 2N HCl, and absorbance at 450 nm was measured using a plate reader (infinite F200: TECAN) (Table 5).
Oligo DNAs of a library were synthesized (see below), in which amino acid residues (positions 1, 4, 8, 10, +1 and +2) (corresponding to X1, […], X8, X10, X+1 and X+2) other than those essential or advantageous for CTLA-4 binding (2H, 3P, 5L, 6P, 7I, 9S, 11H, 12F) identified by alanine scanning were randomized (NNS).
Affinity Maturation was performed in the same manner as described above. The amount of biotinylated CTLA-4 immobilized on the magnetic beads was 10 pmol in the 1st round, 2 pmol in the 2nd round, and 1 pmol in the 3nd-5th rounds, respectively. The washing period was 2 hours for the 1st round, 19 hours for the 2nd round, 67 hours for the 3nd round, 140 hours for the 4th round, and 340 hours for the 5th round. Washing frequency was 1 time (2 hours) in the 1st round, 2 times (every 10 hours) in the 2nd round, 6 times (every 10 hours) in the 3rd round, 14 times (every 10 hours) in the 4th round, and 36 times (every 10 hours) in the 5th round.

Row | Substance | ELISA S/N(SA)
1 | C4m#19-5th4w-NN6-67 (GGCLHPFLPIRSVHFCPR; C4m#19-5th4w-NN6-67) | 45.4
2 | C4m#19-5th2w-NNS6-74 (GGCMHPFLPIRSWHFCSR; C4m#19-5th2w-NNS6-74) | 7.0
3 | C4m3127-4th-NNS6-80 (GGCGHPFLPIFSLHFCPR; C4m3127-4th-NNS6-80) [Clone C4m3127-4th-NNS6-80] | 12.8
4 | C4m3127-4th-NNS6-26 (GGCAHPALPIWSCHFCPF; C4m3127-4th-NNS6-26) [Clone C4m3127-4th-NNS6-26] | 7.1
5 | C4m3127-4th-NNS6-89 (GGCWHPFLPIFSAHFCMR; C4m3127-4th-NNS6-89) [Clone C4m3127-4th-NNS6-89] | 6.6
6 | C4m#19-5th2w-NNS6-79 (GGCRHPFLPIVSRHFCVA; C4m#19-5th2w-NNS6-79) | 9.2
7 | C4m#19-5th4w-NN6-5-1 (GGCWHPYLPIQSLHFCPF; C4m#19-5th4w-NN6-5-1) | 14.7
8 | C4m#19-5th4w-NN6-40 (GGCFHPFLPIRSHHFCML; C4m#19-5th4w-NN6-40) | 4.0
9 | C4m3127-4th-NNS6-64 (GGCLHPYLPIVSSHFCPF; C4m3127-4th-NNS6-64) [Clone C4m3127-4th-NNS6-64] | 12.9
10 | C4m#19-5th4w-NN6-15 (GGCLHPFLPIRSVHFCPF; left off: large carriers; small tags and cut ends) | 39.9
11 | C4m#19-5th4w-NN6-30 (GGCWHPFLPIMSFHFCPY; C4m#19-5th4w-NN6-30) | 16.7
12 | C4m#19-5th4w-NN6-46-1 (GGCVHPALPIWSFHFCPS; C4m#19-5th4w-NN6-46-1) | 14.2
13 | C4m3127-4th-NNS6-28 (GGCLHPFLPIFSSHFCAL; C4m3127-4th-NNS6-28) [Clone C4m3127-4th-NNS6-28] | 23.2
14 | C4m3127-4th-NNS6-94 (GGCRHPVLPIWSSHFCPW; C4m3127-4th-NNS6-94) [Clone C4m3127-4th-NNS6-94] | 5.9
15 | C4m#19-5th2w-NNS6-87 (GGCLHPYLPIFSVHFCAL; C4m#19-5th2w-NNS6-87) | 4.5
16 | C4m#19-5th4w-NN6-47 (GGCPHPWLPIFSRHFCPV; C4m#19-5th4w-NN6-47) | 34.2
17 | C4m3127-4th-NNS6-17 (GGCRHPVLPIVSLHFCPG; C4m3127-4th-NNS6-17) [Clone C4m3127-4th-NNS6-17] | 20.4
18 | C4m#19-5th4w-NN6-25 (GGCLHPVLPIRSRHFCPV; C4m#19-5th4w-NN6-25) | 38.9
19 | C4m#19-5th2w-NNS6-26 (GGCLHPFLPIVSIHFCSA; C4m#19-5th2w-NNS6-26) | 5.8
20 | C4m#19-5th4w-NN6-86 (GGCAHPVLPIRSLHFCPH; C4m#19-5th4w-NN6-86) | 19.7
21 | C4m#19-5th2w-NNS6-55 (GGCMHPYLPIKSVHFCPL; C4m#19-5th2w-NNS6-55) | 28.3
22 | C4m#19-5th4w-NN6-51 (GGCWHPYLPIVSWHFCSR; C4m#19-5th4w-NN6-51) | 22.1
23 | C4m#19-5th4w-NN6-61 (GGCPHPMLPIFSVHFCPY; C4m#19-5th4w-NN6-61) | 5.9
24 | C4m3127-4th-NNS6-87 (GGCRHPWLPIVSWHFCSR; C4m3127-4th-NNS6-87) [Clone C4m3127-4th-NNS6-87] | 21.4
25 | C4m#19-5th4w-NN6-11 (GGCRHPFLPIWSHHFCVC; C4m#19-5th4w-NN6-11) | 22.1
26 | C4m#19-5th2w-NNS6-61 (GGCCHPWLPIRSVHFCPF; C4m#19-5th2w-NNS6-61) | 4.3
27 | C4m3127-4th-NNS6-7 (GGCRHPFLPIRSPHFCGS; C4m3127-4th-NNS6-7) [Clone C4m3127-4th-NNS6-7] | 4.7

Row | Substance | ELISA S/N(SA)
28 | C4m#19-5th4w-NN6-78 (GGCWHPALPIRSWHFCPR; C4m#19-5th4w-NN6-78) | 27.9
29 | C4m#19-5th2w-NNS6-30 (GGCWHPFLPILSWHFCGR; C4m#19-5th2w-NNS6-30) | 9.0
30 | C4m#19-5th2w-NNS6-80 (GGCLHPFLPIVSWHFCPC; C4m#19-5th2w-NNS6-80) | 3.6
31 | C4m#19-5th2w-NNS6-4 (GGCFHPWLPISSLHFCPF; C4m#19-5th2w-NNS6-4) | 6.3
32 | C4m3127-4th-NNS6-85 (GGCGHPFLPIFSSHFCPL; C4m3127-4th-NNS6-85) [Clone C4m3127-4th-NNS6-85] | 9.1
33 | C4m#19-5th4w-NN6-65-1 (GGCWHPFLPISSPHFCGR; left off: large carriers; small tags and cut ends) | 29.5
34 | C4m#19-5th4w-NN6-32 (GGCPHPFLPIWSVHFCPF; C4m#19-5th4w-NN6-32) | 27.2
35 | C4m#19-5th4w-NN6-55-4 (GGCVHPSLPILSVHFCPR; C4m#19-5th4w-NN6-55-4) | 29.5
36 | C4m3127-4th-NNS6-48 (GGCFHPWLPIASWHFCGR; C4m3127-4th-NNS6-48) [Clone C4m3127-4th-NNS6-48] | 13.5
37 | C4m#19-5th4w-NN6-34 (GGCFHPFLPIRSDHFCSR; C4m#19-5th4w-NN6-34) | 32.2
38 | C4m#19-5th4w-NN6-70 (GGCMHPFLPIRSMHFCPL; C4m#19-5th4w-NN6-70) | 35.5
39 | C4m#19-5th2w-NNS6-21 (GGCWHPFLPIRSSHFCPS; C4m#19-5th2w-NNS6-21) | 31.1
40 | C4m#19-5th4w-NN6-91 (GGCMHPYLRIISPHFCRG; C4m#19-5th4w-NN6-91) | 30.0
41 | C4m#19-5th4w-NN6-1 (GGCRHPYLPIFSAHFCRS; C4m#19-5th4w-NN6-1) | 16.1
42 | C4m#19-5th4w-NN6-63 (GGCWHPYLPILSRHFCQA; C4m#19-5th4w-NN6-63) | 16.5
43 | C4m#19-5th4w-NN6-85 (GGCWHPFLPIFSVHFCGC; C4m#19-5th4w-NN6-85) | 22.9
44 | C4m3127-4th-NNS6-72 (GGCVHPYLPISSIHFCSM; C4m3127-4th-NNS6-72) [Clone C4m3127-4th-NNS6-72] | 20.0
45 | C4m#19-5th4w-NN6-89 (GGCMHPFLPIISQHFCAF; C4m#19-5th4w-NN6-89) | 8.3
46 | C4m#19-5th2w-NNS6-25 (GGCKHPFLPISSHHFCPY; C4m#19-5th2w-NNS6-25) | 21.1
47 | C4m#19-5th4w-NN6-77 (GGCRHPFLPIVSTHFCSR; C4m#19-5th4w-NN6-77) | 30.5
48 | C4m#19-5th4w-NN6-54 (GGCLHPGLPIRSLHFCPR; C4m#19-5th4w-NN6-54) | 33.3
49 | C4m#19-5th4w-NN6-50 (GGCKHPVLPIWSWHFCRI; C4m#19-5th4w-NN6-50) | 28.1
50 | C4m3127-4th-NNS6-83 (GGCRHPFLPIFSKHFCEL; C4m3127-4th-NNS6-83) [Clone C4m3127-4th-NNS6-83] | 20.7
51 | C4m#19-5th2w-NNS6-46 (GGCFHPFLPIFSYHFCGL; C4m#19-5th2w-NNS6-46) | 6.1
52 | C4m#19-5th4w-NN6-59 (GGCLHPHLPIWSLHFCPL; C4m#19-5th4w-NN6-59) | 27.6
53 | C4m#19-5th4w-NN6-57 (GGCMHPYLPIVSVHFCPC; C4m#19-5th4w-NN6-57) | 27.7
54 | C4m#19-5th2w-NNS6-27 (GGCFHPFLPIRSCHFCAR; C4m#19-5th2w-NNS6-27) | 9.9

Same assay, conditions: S/N ratio of CTLA-4 binding in ELISA; clones from 4th or 5th round of Affinity Maturation from random (NNS) library

Row | Substance | ELISA S/N(SA)
55 | C4m#19-5th2w-NNS6-41 (GGCWHPVLPIRSDHFCCR; C4m#19-5th2w-NNS6-41) | 3.1
56 | C4m3127-4th-NNS6-37 (GGCWHPVLPIRSIHFCGC; C4m3127-4th-NNS6-37) [Clone C4m3127-4th-NNS6-37] | 3.5
